Consider 13 molecules from patent US20260256915A1 (published 2026).

Substitutions are numbered along the chain they refer to.

This assay addresses T1, PRAME peptide on HLA-A*02:01 (human).
T1 peptide: SLLQHLIGL
As to the kind of experiment: multimer staining.

B1: nwTCR-2793 (TCR, V domains shown)
Valpha: QKEVEQNSGPLSVPEGAIASLNCTYSDRVSQSFFWYRQYSGKSPELIMSIYSNGDKEDGRFTAQLNKASQYVSLLIRDSQPSDSATYLCAVVSSNDYKLSFGAGTTVTVRA
Vbeta: EAQVTQNPRYLITVTGKKLTVTCSQNMNHEYMSWYRQDPGLGLRQIYYSMNVEVTDKGDVPEGYKVSRKEKRNFPLILESPSPNQTSLYFCASSPGTIGELFFGEGSRLTVL
For the molecule B1, the binding result is “recognises”.

B2: nwTCR-2915 (TCR, V domains shown)
Valpha: GESVGLHLPTLSVQEGDNSIINCAYSNSASDYFIWYKQESGKGPQFIIDIRSNMDKRQGQRVTVLLNKTVKHLSLQIAATQPGDSAVYFCAESYGQKLLFARGTMLKVDL
Vbeta: B1 Vbeta with P95F, G96W, T97S, I98A
Take B2: the binding result was “recognises”.

B3: nwTCR-2916 (TCR, V domains shown)
Valpha: GQQLNQSPQSMFIQEGEDVSMNCTSSSIFNTWLWYKQDPGEGPVLLIALYKAGELTSNGRLTAQFGITRKDSFLNISASIPSDVGIYFCAGQDDGGSQGNLIFGKGTKLSVKP
Vbeta: DSGVTQTPKHLITATGQRVTLRCSPRSGDLSVYWYQQSLDQGLQFLIQYYNGEERAKGNILERFSAQQFPDLHSELNLSSLELGDSALYFCASSPWTSGGDGELFFGEGSRLTVL
With B3, the binding result is on record as “recognises”.

B4: nwTCR-3173 (TCR, V domains shown)
Valpha: SQQGEEDPQALSIQEGENATMNCSYKTSINNLQWYRQNSGRGLVHLILIRSNEREKHSGRLRVTLDTSKKSSSLLITASRAADTASYFCATYANDYKLSFGAGTTVTVRA
Vbeta: EAQVTQNPRYLITVTGKKLTVTCSQNMNHEYMSWYRQDPGLGLRQIYYSMNVEVTDKGDVPEGYKVSRKEKRNFPLILESPSPNQTSLYFCASSAGTGGFVGYTFGSGTRLTVV
Consider B4, for which the binding result is recorded as “recognises”.

B5: nwTCR-3028 (TCR, V domains shown)
Valpha: SQQGEEDPQALSIQEGENATMNCSYKTSINNLQWYRQNSGRGLVHLILIRSNEREKHSGRLRVTLDTSKKSSSLLITASRAADTASYFCATDVKSSYKLIFGSGTRLLVRP
Vbeta: AAGVIQSPRHLIKEKRETATLKCYPIPRHDTVYWYQQGPGQDPQFLISFYEKMQSDKGSIPDRFSAQQFSDYHSELNMSSLELGDSALYFCASSLGLLGNEQFFGPGTRLTVL
On to B5, for which the binding result is “recognises”.

B6: nwTCR-2720 (TCR, V domains shown)
Valpha: SQQGEEDPQALSIQEGENATMNCSYKTSINNLQWYRQNSGRGLVHLILIRSNEREKHSGRLRVTLDTSKKSSSLLITASRAADTASYFCATDLSGAGSYQLTFGKGTKLSVIP
Vbeta: EAQVTQNPRYLITVTGKKLTVTCSQNMNHEYMSWYRQDPGLGLRQIYYSMNVEVTDKGDVPEGYKVSRKEKRNFPLILESPSPNQTSLYFCASSLGTGFGELFFGEGSRLTVL
For the molecule B6, the binding result was “recognises”.

B7: nwTCR-2970 (TCR, V domains shown)
Valpha: QQPVQSPQAVILREGEDAVINCSSSKALYSVHWYRQKHGEAPVFLMILLKGGEQKGHDKISASFNEKKQQSSLYLTASQLSYSGTYFCGTEFRNDYKLSFGAGTTVTVRA
Vbeta: B6 Vbeta with L95P, F99G, G100Y, E101G, L102Y, F103T, E106S, S108T, L113V
Turning to B7, the binding result is listed as “recognises”.

B8: nwTCR-3125 (TCR, V domains shown)
Valpha: QKEVEQNSGPLSVPEGAIASLNCTYSDRVSQSFFWYRQYSGKSPELIMSIYSNGDKEDGRFTAQLNKASQYVSLLIRDSQPSDSATYLCALVSGTYKYIFGTGTRLKVLA
Vbeta: DTAVSQTPKYLVTQMGNDKSIKCEQNLGHDTMYWYKQDSKKFLKIMFSYNNKELIINETVPNRFSPKSPDKAHLNLHINSLELGDSAVYFCASSPGLAYEQYFGPGTRLTVT
As for B8, the binding result was “recognises”.

B9: nwTCR-3095 (TCR, V domains shown)
Valpha: DQQVKQNSPSLSVQEGRISILNCDYTNSMFDYFLWYKKYPAEGPTFLISISSIKDKNEDGRFTVFLNKSAKHLSLHIVPSQPGDSAVYFCAAFASDSNYQLIWGAGTKLIIKP
Vbeta: DTAVSQTPKYLVTQMGNDKSIKCEQNLGHDTMYWYKQDSKKFLKIMFSYNNKELIINETVPNRFSPKSPDKAHLNLHINSLELGDSAVYFCASSPWTSGGNGELFFGEGSRLTVL
For B9, the binding result is reported as “recognises”.

B10: nwTCR-3271 (TCR, V domains shown)
Valpha: DQQVKQNSPSLSVQEGRISILNCDYTNSMFDYFLWYKKYPAEGPTFLISISSIKDKNEDGRFTVFLNKSAKHLSLHIVPSQPGDSAVYFCAAKPDKLIFGTGTRLQVFP
Vbeta: SAVISQKPSRDICQRGTSLTIQCQVDSQVTMMFWYRQQPGQSLTLIATANQGSEATYESGFVIDKFPISRPNLTFSTLTVSNMSPEDSSIYLCSVWGAGLAIYNEQFFGPGTRLTVL
With B10, the binding result is “recognises”.

B11: nwTCR-3273 (TCR, V domains shown)
Valpha: SQELEQSPQSLIVQEGKNLTINCTSSKTLYGLYWYKQKYGEGLIFLMMLQKGGEEKSHEKITAKLDEKKQQSSLHITASQPSHAGIYLCGAVPINDYKLSFGAGTTVTVRA
Vbeta: EAQVTQNPRYLITVTGKKLTVTCSQNMNHEYMSWYRQDPGLGLRQIYYSMNVEVTDKGDVPEGYKVSRKEKRNFPLILESPSPNQTSLYFCASSIDSGSSYNEQFFGPGTRLTVL
On to B11, for which the binding result was “recognises”.

B12: nwTCR-3272 (TCR, V domains shown)
Valpha: QKEVEQNSGPLSVPEGAIASLNCTYSDRGSQSFFWYRQYSGKSPELIMSIYSNGDKEDGRFTAQLNKASQYVSLLIRDSQPSDSATYLCAVPSGNMLTFGGGTRLMVKP
Vbeta: DVKVTQSSRYLVKRTGEKVFLECVQDMDHENMFWYRQDPGLGLRLIYFSYDVKMKEKGDIPEGYSVSREKKERFSLILESASTNQTSMYLCASSSATSGSGEQYFGPGTRLTVT
In the case of B12, the binding result is reported as “recognises”.

B13: nwTCR-3274 (TCR, V domains shown)
Valpha: QKEVEQNSGPLSVPEGAIASLNCTYSDRGSQSFFWYRQYSGKSPELIMSIYSNGDKEDGRFTAQLNKASQYVSLLIRDSQPSDSATYLCAVVSGGYNKLIFGAGTRLAVHP
Vbeta: EPEVTQTPSHQVTQMGQEVILRCVPISNHLYFYWYRQILGQKVEFLVSFYNNEISEKSEIFDDQFSVERPDGSNFTLKIRSTKLEDSAMYFCASSEGWGGTEAFFGQGTRLTVV
As to B13, the binding result is given as “recognises”.
